The target of this test is human stem cell factor isoform SCF248 (human, UniProt P21583 26-273). As to the kind of experiment: flow cytometry on S1/S14 hSCF248 cells; printed as BC50 (50% maximal binding). In general terms: In flow cytometry, cells or beads pass a laser one at a time.
Chain of human stem cell factor isoform SCF248 (P21583 26-189): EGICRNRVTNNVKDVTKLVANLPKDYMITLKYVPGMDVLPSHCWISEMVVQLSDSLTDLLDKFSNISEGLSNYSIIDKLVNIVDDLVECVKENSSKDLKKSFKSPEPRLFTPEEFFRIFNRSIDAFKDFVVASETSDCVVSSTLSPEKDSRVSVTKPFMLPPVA

B1: 5H10 VH3/VK3 (antibody, human IgG4, V domains shown)
VH: QVQLVQSGAEVKKPGSSVKVSCKSSGYAFSSYWMNWVRQRPGQGLEWIGQIYPGDGDTHYNGKFKGKATLTADKSTSTAYMELSSLRSEDTAVYFCSSSNWVGSYWGQGTLVTVSS
VL: DVVMTQSPLSLPVTLGQPASISCKSSQSLLESDGKTYLNWLQQRPGQSPRRLIYLVSRLDSGVPDRFSGSGSGTDFTLKISRVEAEDVGVYYCWQGTHLPQTFGGGTKVEIK
notes: Humanized; only variable regions are tied to the name
What is called EC50 is the concentration that produces a half-maximal response. Read a low EC50 as a more potent agent. As for B1, a half-maximal response (EC50) required 0.9 µg/mL.

The values above are taken from patent US20220340655A1 (OPSIDIO, published 2022).
